Data: EP0251446B1, “Non-human Carbonyl hydrolase mutants, DNA sequences and vectors encoding same and hosts transformed with said vectors” (GENENCOR INTERNATIONAL, INC., priority 1986, dated 1988)
Where a chain is given by its changes, count along the chain named. Names and notes keep the numbering of the source. *1 amine or outer side, *2 acyl side, *3 side chain or, on linkers, in order; H or OH if unused. Where a SMILES comes first, the peptide text is derived from it. The star is where a group is joined. pNA = O=[N+]([O-])c1ccc(N*)cc1; Suc = O=C(CCC(=O)[*:2])[*:1]

Columns and labels:
[1] = target: T1, B. amyloliquefaciens subtilisin variant S152 (Ala152 to Ser) (Bacillus amyloliquefaciens, UniProt P00782, A259S); assay: Kinetics of p-nitroanilide substrate hydrolysis, S152; format: biochemical; settings: Table XII, Ser (S) at position 152; synthetic p-nitroanilide substrate with label as P-1 amino acid
T1 construct: at various amino acid residues within the mature form of the subtilisin molecule; made in house
From the text: (§1) Wild-type subtilisin was purified from B. subtilis culture supernatants expressing the B. amyloliquefaciens subtilisin gene (Wells, J.A., et al. (1983) Nucleic Acids Res. 11, 7911-7925) as previously described (Estell, D.A., et al. (1985) J. Biol. Chem. 260, 6518-6521). Details of the synthesis of tetrapeptide substrates having the form succinyl-L-AlaL-AlaL-ProL-[X]-p-nitroanilide (where X is the P1 amino acid) are described by DelMar, E.G., et al. (1979) Anal. Biochem. 99, 316-320. Kinetic parameters, Km(M) and kcat-(s-^1) were measured using a modified progress curve analysis (Estell, D.A., et al. (1985) J. Biol. Chem. 260, 6518-6521). Briefly, plots of rate versus product concentration were fit to the differential form of the rate equation using a non-linear regression algorithm. Errors in kcat and Km for all values reported are less than five percent. The various substrates in Table VIII are ranged in order of decreasing hydrophobicity. Nozaki, Y. (1971), J. Biol. Chem. 246, 2211-2217; Tanford C. (1978) Science 200, 1012).
(§2) The wild type DNA sequence was mutated by the V152/P153 primer (Figure 20, line 4) using the above restriction-purification approach for the new Kpnl site. Other mutant primers (shaded sequences Figure 20; S152, line 5 and G152, line 6) mutated the new Kpnl site away and such mutants were isolated using the restriction-selection procedure as described above for loss of the Kpnl site.
(§3) The results of these substitutions for the above synthetic substrates containing the P-1 amino acids Phe, Leu and Ala are shown in Table XII.

[2] = target: T2, B. amyloliquefaciens subtilisin, wild type (WT, Gly166) (Bacillus amyloliquefaciens, UniProt P00782); assay: Kinetics of hydrolysis of succinyl-Ala-Ala-Pro-X-p-nitroanilide substrates (progress curve analysis); format: biochemical; settings: for kcat/Kmx10^-4: Table XII, Ala (wild type) at position 152, synthetic p-nitroanilide substrate with label as P-1 amino acid
T2 construct: at various amino acid residues within the mature form of the subtilisin molecule; made in house; host or cells: Bacillus subtilis (secreted, culture supernatant)
T2 sequence (P00782 108-382): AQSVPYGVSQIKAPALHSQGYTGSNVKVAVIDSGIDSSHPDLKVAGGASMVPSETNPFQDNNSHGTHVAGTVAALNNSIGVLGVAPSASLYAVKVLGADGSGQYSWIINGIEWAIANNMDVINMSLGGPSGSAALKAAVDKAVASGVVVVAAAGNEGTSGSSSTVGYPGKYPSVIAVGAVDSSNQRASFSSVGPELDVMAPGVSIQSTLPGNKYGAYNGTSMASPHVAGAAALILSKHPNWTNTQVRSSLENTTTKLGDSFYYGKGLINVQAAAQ
From the text: A change in substrate specificity is defined as a difference between the kcat/Km ratio of the precursor carbonyl hydrolase and that of the hydrolase mutant. The kcat/Km ratio is a measure of catalytic efficienty. Carbonyl hydrolase mutants with increased or diminished kcat/Km ratios are described in the examples. Generally, the objective will be to secure a mutant having a greater (numerically large) kcat/Km ratio for a given substrate, thereby enabling the use of the enzyme to more efficiently act on a target substrate. A substantial change in kcat/Km ratio is preferably at least 2-fold increase or decrease. However, smaller increases or decreases in the ratio (e.g., at least 1.5-fold) are also considered substantial. An increase in kcat/Km ratio for one substrate may be accompanied by a reduction in kcat/Km ratio for another substrate. […] Km and kcat are measured in accord with known procedures, as described in EPO Publication No. 0130756 or as described herein.
as §1

[3] = target: T3, B. amyloliquefaciens subtilisin variant G152 (Ala152 to Gly) (Bacillus amyloliquefaciens, UniProt P00782, A259G); assay: Kinetics of p-nitroanilide substrate hydrolysis, G152; format: biochemical; settings: Table XII, Gly (G) at position 152; synthetic p-nitroanilide substrate with label as P-1 amino acid
T3 construct: made in house
From the text: as §1, §2, §3

[4] = substrate: C[C@H](NC(=O)CCC(=O)O)C(=O)N[C@@H](C)C(=O)N1CCC[C@H]1C(=O)N[C@@H](Cc1ccccc1)C(=O)Nc1ccc([N+](=O)[O-])cc1; assay: Kinetics of p-nitroanilide substrate hydrolysis, deletion mutant; format: biochemical, B. amyloliquefaciens; settings: other: Table V; substrate not given; Km in M
From the text: The effect of deletion of residues 161 through 164 has been shown by comparing the activity of the wild type (WT) enzyme with a mutant enzyme containing this deletion as well as multiple substitutions (i.e., S153/S156/A158/G159/S160/0161-164/1165/S166/A169/R170). This produced the following results:
as §1

[5] = substrate: C[C@H](NC(=O)CCC(=O)O)C(=O)N[C@@H](C)C(=O)N1CCC[C@H]1C(=O)N[C@@H](Cc1ccccc1)C(=O)Nc1ccc([N+](=O)[O-])cc1; assay: Kinetics of p-nitroanilide substrate hydrolysis, L217; format: biochemical, B. amyloliquefaciens; settings: other: substrate sAAPFpNa; Km in M
From the text: as §1
Tyr217 has been substituted by all other 19 amino acids. Cassette mutagenesis as described in EPO publication No. 0130756 was used according to the protocol of Figure 22. The EcoRV restriction site was used for restriction-purification of pA217.
Since this position is involved in substrate binding, mutations here effect kinetic parameters of the enzyme. […]

[6] = substrate: C[C@H](NC(=O)CCC(=O)O)C(=O)N[C@@H](C)C(=O)N1CCC[C@H]1C(=O)N[C@@H](Cc1ccccc1)C(=O)Nc1ccc([N+](=O)[O-])cc1; assay: Kinetics of p-nitroanilide substrate hydrolysis, A222; format: biochemical, B. amyloliquefaciens; settings: other: Table XIX
From the text: as §1
Although mutations at position 222 improve oxidation stability they also tend to increase the Km. In this case the A222 mutation was combined with the K166 mutation to give an enzyme with kcat and Km intermediate between the two parent enzymes.

[7] = substrate: C[C@H](NC(=O)[C@H](Cc1ccccc1)NC(=O)CCC(=O)O)C(=O)N1CCC[C@H]1C(=O)N[C@@H](Cc1ccccc1)C(=O)Nc1ccc([N+](=O)[O-])cc1; assay: Kinetics of p-nitroanilide substrate hydrolysis, H104; format: biochemical, B. amyloliquefaciens; settings: other: Table XI
From the text: as §1
(§4) Tyr104 has been substituted with Ala, His, Leu, Met and Ser. The method used was a modification of the site directed mutagenesis method. According to the protocol of Figure 19, a primer (shaded in line 4) introduced a unique Hindlll site and a frame shift mutation at codon 104. Restriction-purification for the unique Hindlll site facilitated the isolation of the mutant sequence. Restriction-selection against this Hindlll site using pimers in line 5 was used to obtain position 104 mutants.
(§5) The substrates in Table XI were used to analyze the substrate specificity of these mutants.

[8] = substrate: C[C@H](NC(=O)CCC(=O)O)C(=O)N[C@@H](C)C(=O)N1CCC[C@H]1C(=O)N[C@@H](C)C(=O)Nc1ccc([N+](=O)[O-])cc1; assay: as above; format: biochemical, B. amyloliquefaciens; settings: other: Table XI
From the text: as §1, §4, §5

[9] = substrate: C[C@H](NC(=O)CCC(=O)O)C(=O)N[C@@H](C)C(=O)N1CCC[C@H]1C(=O)N[C@@H](Cc1ccccc1)C(=O)Nc1ccc([N+](=O)[O-])cc1; assay: as above; format: biochemical, B. amyloliquefaciens; settings: other: Table XI
From the text: as §1, §4, §5

[10] = substrate: C[C@H](NC(=O)[C@@H]1CCCN1C(=O)[C@H](C)NC(=O)[C@H](Cc1ccccc1)NC(=O)CCC(=O)O)C(=O)Nc1ccc([N+](=O)[O-])cc1; assay: as above; format: biochemical, B. amyloliquefaciens; settings: other: Table XI
From the text: as §1, §4, §5

[11] = substrate: C[C@H](NC(=O)CCC(=O)O)C(=O)N[C@@H](C)C(=O)N1CCC[C@H]1C(=O)N[C@@H](Cc1ccccc1)C(=O)Nc1ccc([N+](=O)[O-])cc1; assay: Kinetics of p-nitroanilide substrate hydrolysis, K166/A222; format: biochemical, B. amyloliquefaciens; settings: other: Table XIX
From the text: as §1, with “1012). […]” for “1012).”

[12] = Table VIII, substrate succinyl-L-AlaL-AlaL-ProL-[X]-p-nitroanilide, X = label (P1 amino acid)

T1 sequence (P00782 108-382 A259S): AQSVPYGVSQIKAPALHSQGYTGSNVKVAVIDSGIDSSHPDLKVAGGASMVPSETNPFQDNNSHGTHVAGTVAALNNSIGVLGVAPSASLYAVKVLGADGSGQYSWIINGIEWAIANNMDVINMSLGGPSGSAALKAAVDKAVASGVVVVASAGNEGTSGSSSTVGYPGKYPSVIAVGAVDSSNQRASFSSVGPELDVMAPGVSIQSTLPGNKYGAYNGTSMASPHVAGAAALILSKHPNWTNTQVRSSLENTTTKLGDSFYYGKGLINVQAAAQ
T3 sequence (P00782 108-382 A259G): as the sequence (P00782 108-382 A259S) above, with S152G counted along it

Q: Which “kcat/Kmx10^-4” value [1] does the source give for `C[C@H](NC(=O)CCC(=O)O)C(=O)N[C@@H](C)C(=O)N1CCC[C@H]1C(=O)N[C@@H](Cc1ccccc1)C(=O)Nc1ccc([N+](=O)[O-])cc1` [Phe] (Suc-AAPF-pNA) here?
A: 1.0

Q: What about the kcat [2, 12] of the same molecule?
A: 50 S^-1

Q: And the “kcat/Kmx10^-4” value [2]?
A: 40.0

Q: What about the kcat ([2]; Table XIII, Glu156/Gly166 (WT), synthetic substrate with label as P-1 residue) of the same molecule?
A: 50.00 s-^1

Q: And the “kcat/Kmx10^-4” value [3]?
A: 0.2

Q: How did the kcat [2, 12] turn out when `C[C@H](NC(=O)CCC(=O)O)C(=O)N[C@@H](C)C(=O)N1CCC[C@H]1C(=O)N[C@@H](CCC(=O)O)C(=O)Nc1ccc([N+](=O)[O-])cc1` [Glu] (Suc-AAPE-pNA) was run?
A: 0.54 S^-1

Q: What does the source list for `CC(C)C[C@H](NC(=O)[C@@H]1CCCN1C(=O)[C@H](C)NC(=O)[C@H](C)NC(=O)CCC(=O)O)C(=O)Nc1ccc([N+](=O)[O-])cc1` [Leu] (Suc-AAPL-pNA)?
A: kcat/Kmx10^-4 [1]: 0.5; kcat/Kmx10^-4 [2]: 10.0; kcat/Kmx10^-4 [3]: 0.4

Q: `C[C@H](NC(=O)CCC(=O)O)C(=O)N[C@@H](C)C(=O)N1CCC[C@H]1C(=O)N[C@@H](C)C(=O)Nc1ccc([N+](=O)[O-])cc1` [Ala] (Suc-AAPA-pNA) was tested. Which “kcat/Kmx10^-4” value [1] did it give?
A: 0.2

Q: And the “kcat/Kmx10^-4” value [2]?
A: 1.0

Q: And the “kcat/Kmx10^-4” value [3]?
A: <0.04

B1: B. amyloliquefaciens subtilisin deletion mutant S153/S156/A158/G159/S160/Δ161-164/I165/S166/A169/R170 (Bacillus amyloliquefaciens; … (protein)
chain: AQSVPYGVSQIKAPALHSQGYTGSNVKVAVIDSGIDSSHPDLKVAGGASMVPSETNPFQDNNSHGTHVAGTVAALNNSIGVLGVAPSASLYAVKVLGADGSGQYSWIINGIEWAIANNMDVINMSLGGPSGSAALKAAVDKAVASGVVVVAASGNSGAGSISYPARYPSVIAVGAVDSSNQRASFSSVGPELDVMAPGVSIQSTLPGNKYGAYNGTSMASPHVAGAAALILSKHPNWTNTQVRSSLENTTTKLGDSFYYGKGLINVQAAAQ
notes: at various amino acid residues within the mature form of the subtilisin molecule; made in house
Q: B1 was tested. Which Km [4] did it give?
A: 5 µM

B2: B. amyloliquefaciens subtilisin variant L217 (Tyr217 to Leu) (Bacillus amyloliquefaciens; Y324L) (protein)
chain: T2 sequence (P00782 108-382) with Y217L
notes: as for B1
Q: With B2 as the molecule, how does the Km [5] read?
A: 470 µM

B3: B. amyloliquefaciens subtilisin variant A222 (Met222 to Ala) (Bacillus amyloliquefaciens; M329A) (protein)
chain: T2 sequence (P00782 108-382) with M222A
notes: as for B1
Q: With B3 as the molecule, how does the Km [6] read?
A: 990 µM

Q: What about the kcat [6] of the same molecule?
A: 42 s-^1

B4: B. amyloliquefaciens subtilisin variant H104 (Tyr104 to His) (Bacillus amyloliquefaciens; Y211H) (protein)
chain: T2 sequence (P00782 108-382) with Y104H
notes: as for B1
Q: Which Km [7] does the source give for B4 here?
A: 410 µM

Q: And the kcat [7]?
A: 38.0 s-^1

Q: What about the kcat/Km [7] of the same molecule?
A: 91000 M⁻¹ s⁻¹

Q: What about the Km [8] of the same molecule?
A: 1900 µM

Q: And the kcat [8]?
A: 2.0 s-^1

Q: What about the kcat/Km [8] of the same molecule?
A: 1000 M⁻¹ s⁻¹

Q: And the Km [9]?
A: 710 µM

Q: What about the kcat [9] of the same molecule?
A: 22.0 s-^1

Q: And the kcat/Km [9]?
A: 31000 M⁻¹ s⁻¹

Q: What about the Km [10] of the same molecule?
A: 150 µM

Q: And the kcat [10]?
A: 2.4 s-^1

Q: What about the kcat/Km [10] of the same molecule?
A: 16000 M⁻¹ s⁻¹

B5: B. amyloliquefaciens subtilisin variant K166/A222 (Bacillus amyloliquefaciens; G273K/M329A) (protein)
chain: T2 sequence (P00782 108-382) with G166K, M222A
notes: as for B1
Q: With B5 as the molecule, how does the Km [11] read?
A: 200 µM

Q: What about the kcat [11] of the same molecule?
A: 29 s-^1
